Source: IntAct's records for PubMed 29039417

B1: BBSome complex member BBS2 (Homo sapiens), Q9BXC9 (parent)
chain: MLLPVFTLKLRHKISPRMVAIGRYDGTHPCLAAATQTGKVFIHNPHTRNQHVSASRVFQSPLESDVSLLSINQAVSCLTAGVLNPELGYDALLVGTQTNLLAYDVYNNSDLFYREVADGANAIVLGTLGDISSPLAIIGGNCALQGFNHEGSDLFWTVTGDNVNSLALCDFDGDGKKELLVGSEDFDIRVFKEDEIVAEMTETEIVTSLCPMYGSRFGYALSNGTVGVYDKTSRYWRIKSKNHAMSIHAFDLNSDGVNELITGWSNGKVDARSDRTGEVIFKDNFSSAIAGVVEGDYRMDGHIQLICCSVDGEIRGYLPGTAEMRGNLMDTSAEQDLIRELSQKKQNLLLELRNYEENAKAELASPLNEADGHRGIIPANTRLHTTLSVSLGNETQTAHTELRISTSNDTIIRAVLIFAEGIFTGESHVVHPSIHNLSSSICIPIVPPKDVPVDLHLKAFVGYRSSTQFHVFESTRQLPRFSMYALTSLDPASEPISYVNFTIAERAQRVVVWLGQNFLLPEDTHIQNAPFQVCFTSLRNGGHLHIKIKLSGEITINTDDIDLAGDIIQSMASFFAIEDLQVEADFPVYFEELRKVLVKVDEYHSVHQKLSADMADHSNLIRSLLVGAEDARLMRDMKTMKSRYMELYDLNRDLLNGYKIRCNNHTELLGNLKAVNQAIQRAGRLRVGKPKNQVITACRDAIRSNNINTLFKIMRVGTASS
partner: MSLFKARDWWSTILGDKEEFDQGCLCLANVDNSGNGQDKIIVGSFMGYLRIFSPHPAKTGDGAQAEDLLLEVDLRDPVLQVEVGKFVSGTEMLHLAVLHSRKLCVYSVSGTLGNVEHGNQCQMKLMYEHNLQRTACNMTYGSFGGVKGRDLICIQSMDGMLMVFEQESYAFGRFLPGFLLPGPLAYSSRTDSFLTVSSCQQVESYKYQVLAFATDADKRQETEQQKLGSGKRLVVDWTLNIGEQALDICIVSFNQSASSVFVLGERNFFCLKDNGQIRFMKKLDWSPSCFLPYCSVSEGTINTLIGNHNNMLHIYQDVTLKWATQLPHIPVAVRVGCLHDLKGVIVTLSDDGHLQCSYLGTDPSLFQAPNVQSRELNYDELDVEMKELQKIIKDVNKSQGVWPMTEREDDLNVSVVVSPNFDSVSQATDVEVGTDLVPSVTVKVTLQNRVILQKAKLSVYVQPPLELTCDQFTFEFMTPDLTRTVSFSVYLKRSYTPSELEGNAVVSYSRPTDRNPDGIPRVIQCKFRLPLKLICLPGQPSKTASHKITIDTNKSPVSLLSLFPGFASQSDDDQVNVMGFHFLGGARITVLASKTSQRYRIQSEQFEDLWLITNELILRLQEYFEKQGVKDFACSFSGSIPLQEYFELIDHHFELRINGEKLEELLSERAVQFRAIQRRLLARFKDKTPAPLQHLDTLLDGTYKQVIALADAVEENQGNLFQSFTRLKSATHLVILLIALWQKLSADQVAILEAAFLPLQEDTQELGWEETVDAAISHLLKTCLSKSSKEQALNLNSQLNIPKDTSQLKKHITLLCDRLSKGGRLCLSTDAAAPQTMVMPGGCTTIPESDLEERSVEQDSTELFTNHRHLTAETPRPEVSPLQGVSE

Variants of: B1
Details: with pthb1_human BBS9, Q3SYG4

Variant | effect of a mutation on the interaction
Q508A | disrupting interaction strength
V512A | with no effect
V512K | with no effect
V512E | with no effect
L538A | with no effect
L550K | with no effect
L550A | with no effect
V510E | with no effect
V510A | with no effect
V510K | with no effect
I546K | with no effect
I546E | disrupting interaction strength
I546A | with no effect
T536K | with no effect
T536A | with no effect
R506A | with no effect
R506K | with no effect
T555E | with no effect
T555H | disrupting interaction strength
T555K | with no effect
V533A | with no effect
V533K | with no effect
N517E | with no effect
N517A | with no effect

Variant | effect of a mutation on the interaction
N517K | with no effect
N517L | disrupting interaction strength
R509K | with no effect
R509E | with no effect
F518A | with no effect
F518E | disrupting interaction strength
F518K | disrupting interaction strength
N557K | with no effect
N557A | with no effect
L519K | with no effect
L519E | with no effect
G515K | with no effect
G515C | disrupting interaction strength
G515A | with no effect
G515R | disrupting interaction strength
T558E | with no effect
T558K | with no effect
F535K | disrupting interaction strength
F535A | with no effect
F535E | disrupting interaction strength
P530K | with no effect
P530E | with no effect
P530A | with no effect
I548K | with no effect

Variant | effect of a mutation on the interaction
I548A | with no effect
K549E | with no effect
K549A | with no effect
Q532E | with no effect
Q532K | with no effect
F501A | with no effect
I526A | with no effect
I526E | with no effect
Q527A | with no effect
L520K | with no effect
L520A | with no effect
L520E | with no effect
A504K | with no effect
A504E | with no effect
W513K | disrupting interaction strength
G541E | with no effect
G541K | with no effect
G541A | with no effect
I503E | with no effect
Q516K | with no effect
Q516E | with no effect
H543E | with no effect
H543K | with no effect
H543A | with no effect

Variant | effect of a mutation on the interaction
N528E | with no effect
N528K | with no effect
N528A | with no effect
N500K | with no effect
T502K | with no effect
A529K | with no effect
A529E | with no effect
H525E | with no effect
H525A | with no effect
H525K | with no effect
I556A | with no effect
T524E | with no effect
T524K | with no effect
H545A | with no effect
F531A | with no effect
F531K | with no effect
G542K | with no effect
S537K | with no effect
S537F | disrupting interaction strength
S537E | with no effect
S551E | with no effect
S551K | with no effect
S551A | with no effect
E553K | with no effect

Variant | effect of a mutation on the interaction
E553A | with no effect
P521E | with no effect
V511E | with no effect
A507E | with no effect
E522A | with no effect
E505K | with no effect
C534E | with no effect
C534K | with no effect
C534A | with no effect
L514E | disrupting interaction strength
L514A | with no effect
L514K | disrupting interaction strength
N540E | with no effect
D523E | with no effect
D523K | with no effect
K547A | with no effect
K547E | with no effect
R539K | with no effect
R539A | with no effect
I554G | disrupting interaction strength
G552K | with no effect
L544S | disrupting interaction strength
L544K | with no effect
L544E | disrupting interaction strength

Continued, values first:

effect of a mutation on the interaction | Variant
with no effect | Q508K
with no effect | Q508E
with no effect | L538E
with no effect | L538K
with no effect | L550E
with no effect | T536E
with no effect | R506E
with no effect | T555A
disrupting interaction strength | T555P
disrupting interaction strength | V533E
with no effect | R509A
disrupting interaction strength | F518L
with no effect | N557E
with no effect | L519A
with no effect | G515E
with no effect | T558A
with no effect | I548E
with no effect | Q532A
with no effect | F501K
disrupting interaction strength | F501E
with no effect | I526K
with no effect | Q527K
with no effect | Q527E
disrupting interaction strength | W513A
with no effect | I503K
with no effect | I503A
with no effect | Q516A
with no effect | T502E

effect of a mutation on the interaction | Variant
with no effect | T502A
with no effect | I556E
with no effect | I556K
with no effect | T524A
with no effect | H545K
with no effect | H545E
with no effect | F531E
with no effect | G542E
with no effect | G542A
with no effect | S537A
with no effect | P521K
with no effect | P521A
with no effect | V511A
with no effect | V511K
with no effect | A507K
with no effect | E522K
with no effect | E505A
disrupting interaction strength | N540A
with no effect | N540K
with no effect | D523A
with no effect | R539E
with no effect | I554A
with no effect | I554K
with no effect | I554E
with no effect | G552A
disrupting interaction strength | G552E
disrupting interaction strength | L544A
